Experimental data published in patent publication US20220073617A1 (Five Prime, published 2022).
Changes are numbered by the printed parent chain. Names and notes keep the numbering of the source.

T1: human VISTA on cells (human monocytes, AML3 cells, 293T/HEK293 cells expressing full-length human VISTA) (human, UniProt Q9H7M9 33-311)
T1 sequence: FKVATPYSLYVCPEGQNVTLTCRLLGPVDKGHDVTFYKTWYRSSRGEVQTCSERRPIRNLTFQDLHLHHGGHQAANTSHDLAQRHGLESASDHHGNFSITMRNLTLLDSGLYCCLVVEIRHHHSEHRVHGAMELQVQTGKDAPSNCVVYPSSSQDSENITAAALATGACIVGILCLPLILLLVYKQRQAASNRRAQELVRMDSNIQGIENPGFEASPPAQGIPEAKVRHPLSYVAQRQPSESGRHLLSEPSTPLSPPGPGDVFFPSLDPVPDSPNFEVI

T2: human VISTA-Fc (hVISTA extracellular domain, amino acids 33-194 of SEQ ID NO: 1, linked to an Fc domain) (human, UniProt Q9H7M9 33-194)
T2 construct: also called WT VISTA; hVISTAFc
T2 sequence: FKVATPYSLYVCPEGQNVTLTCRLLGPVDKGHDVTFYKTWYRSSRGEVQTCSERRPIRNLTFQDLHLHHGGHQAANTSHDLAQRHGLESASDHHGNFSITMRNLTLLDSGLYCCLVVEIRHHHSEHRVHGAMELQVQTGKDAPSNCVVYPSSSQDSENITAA

T3: cyno VISTA-ECD (His tag) (cynomolgus macaque, UniProt Q9H7M9 33-193 (human entry))
T3 construct: also called cyVISTA-His
T3 chain: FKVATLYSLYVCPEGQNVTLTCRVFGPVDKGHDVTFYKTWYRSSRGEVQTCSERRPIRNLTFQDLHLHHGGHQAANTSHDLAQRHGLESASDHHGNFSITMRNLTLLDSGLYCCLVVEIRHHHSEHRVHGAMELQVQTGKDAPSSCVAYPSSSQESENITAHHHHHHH

B1: VISTA.5 (VISTA antibody 1, non-blocking antibody) (antibody, V domains shown)
VH: AVQLQESGPGLVRPSQSLSLTCTVTDYSITSDYAWNWIRQFPGSKLEWLGFIGYSGNTNYNPSLESRISITRHTSKNQFFLHLNSMTTEDTATYYCARSLYGGSHWYFDVWGAGTTVTVSS
VL: DIVLTQSPASLAVSLGQRATISCRGSESVEYYGTILMQWYQQKPGQPPKLLIYGASNVESGVPARFSGSGSGTDFSLNIHPVEEDDIAMYFCQQSRKVPWTFGGGTKLEIK
notes: also called VISTA mAb 1; mAb 1
B2: P1-061029.IgG1.3 (antibody)
heavy: EVQLVESGGGLVQPGKSLRLSCAASGFTLDDYAMHWVRQAPGKGLEWVSGINWNSANIGYADSVKGRFTISRDNAKNSLYLQMNSLRTEDTALYYCAKVPGYSGGWIDAFDVWGQGTMVTVSSASTKGPSVFPLAPSSKSTSGGTAALGCLVKDYFPEPVTVSWNSGALTSGVHTFPAVLQSSGLYSLSSVVTVPSSSLGTQTYICNVNHKPSNTKVDKRVEPKSCDKTHTCPPCPAPEAEGAPSVFLFPPKPKDTLMISRTPEVTCVVVDVSHEDPEVKFNWYVDGVEVHNAKTKPREEQYNSTYRVVSVLTVLHQDWLNGKEYKCKVSNKALPAPIEKTISKAKGQPREPQVYTLPPSREEMTKNQVSLTCLVKGFYPSDIAVEWESNGQPENNYKTTPPVLDSDGSFFLYSKLTVDKSRWQQGNVFSCSVMHEALHNHYTQKSLSLSPG
light: not shown
notes: also called P1-061029 hIgG1.3f; parent
B3: P1-068761.IgG1.3 (antibody)
heavy: B2 heavy with D30E, Y32E, A56E, N57E, G104H, F110E
light: not shown
notes: also called P1-068761 hIgG1.3f
B4: VISTA.4.IgG1.3 (antibody, V domains shown)
VH: QVQLVESGGGLVKPGGSLRLSCAASGFTFSDYYMSWIRQAPGKGLEWVSYISNSGSPIYYADSVKGRFTISRDNAKNSLYLQMNSLRAEDTAVYYCARDLPGWYFDLWGRGTLVTVSS
VL: EIVLTQSPATLSLSPGERATLSCRASQSVSSYLAWYQQKPGQAPRLLIYDASNRATGIPARFSASGSGTDFTLTISSLEPEDFAVYYCQQRNNWPRTFGQGTKVEIKR
notes: also called 41F11
B5: P1-070976 (41F11_VH_T28P/Y50W/S55E/D95H/L96E/P97E/Y100E; VK_A64G), IgG1.3 (antibody, V domains shown)
VH: B4 VH with T28P, Y50W, S56E, D99H, L100E, P101E, Y104E
VL: B4 VL with A64G
notes: also called acidic pH selective VISTA.4 progeny
B6: P1-072315-1 (41F11_VH_T28P/Y50W/S55E/L96E/Y100E VK_A64G) (antibody, V domains shown)
VH: B4 VH with T28P, Y50W, S56E, L100E, Y104E
VL: EIVLTQSPATLSLSPGERATLSCRASQSVSSYLAWYQQKPGQAPRLLIYDASNRATGIPARFSGSGSGTDFTLTISSLEPEDFAVYYCQQRNNWPRTFGQGTKVEIK

Tests used:
[1] = biological target: T1, human VISTA on cells (human monocytes, …); assay: cell-based or functional assay
[2] = biological target: T4, monovalent hVISTA-ECD (amino acids 32-193 of SEQ ID NO: 1 with a 7xHis tail) (human, UniProt Q9H7M9 33-193); assay: SPR 37C, 100 nM hVISTA-ECD, pH 7.4, 6.7, 6.0
T4 construct: analyte of the SPR assays; also called huVISTA-His; hVISTA-His

[3] = biological target: T2, human VISTA-Fc (hVISTA extracellular …); assay: BLI
[4] = biological target: T4, monovalent hVISTA-ECD (amino acids …); assay: SPR 37C
cyno VISTA-ECD (His tag) [5] = biological target: T3, cyno VISTA-ECD (His tag); assay: SPR 37C
[6] = biological target: T4, monovalent hVISTA-ECD (amino acids …); assay: SPR 37C pH 6.0
cyno VISTA-ECD (His tag) [7] = biological target: T3, cyno VISTA-ECD (His tag); assay: SPR 37C pH 6.0
[8] = biological target: T4, monovalent hVISTA-ECD (amino acids …); assay: SPR 37C pH 7.4
cyno VISTA-ECD (His tag) [9] = biological target: T3, cyno VISTA-ECD (His tag); assay: SPR 37C pH 7.4
[10] = biological target: BSA (Calbiochem catalog #126593) (UniProt P02769 25-607); assay: SPR 25C pH 6.0 and 7.4
BSA (Calbiochem catalog #126593), sequence (P02769 25-607 limits assumed): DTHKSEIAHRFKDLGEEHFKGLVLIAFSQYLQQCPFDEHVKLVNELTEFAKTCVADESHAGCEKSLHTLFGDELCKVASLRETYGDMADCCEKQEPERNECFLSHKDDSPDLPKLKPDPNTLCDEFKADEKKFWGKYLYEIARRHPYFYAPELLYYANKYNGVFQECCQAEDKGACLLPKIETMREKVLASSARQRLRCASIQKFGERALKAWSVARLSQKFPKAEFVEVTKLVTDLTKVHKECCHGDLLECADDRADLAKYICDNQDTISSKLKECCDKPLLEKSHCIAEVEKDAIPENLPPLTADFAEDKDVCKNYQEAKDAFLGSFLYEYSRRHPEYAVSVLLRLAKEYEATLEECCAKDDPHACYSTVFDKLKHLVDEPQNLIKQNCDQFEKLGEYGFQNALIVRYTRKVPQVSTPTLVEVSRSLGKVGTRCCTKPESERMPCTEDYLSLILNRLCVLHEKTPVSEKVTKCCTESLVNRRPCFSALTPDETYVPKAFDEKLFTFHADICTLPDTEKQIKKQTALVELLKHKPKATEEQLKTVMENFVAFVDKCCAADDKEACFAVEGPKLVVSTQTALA
Procedure: (§1) The binding specificity of the '029, '761 and '767 clones to VISTA and to other high pI proteins was evaluated by SPR at neutral and acidic pH using a Biacore® T100 instrument (GE Healthcare). Protein A (ThermoFisher Scientific catalog #21181) was diluted to 20 ug/ml in 10 mM sodium acetate pH 4.5 and immobilized onto flow cells of a CM3 biosensor following the manufacturer's amine coupling protocol (GE Healthcare), targeting 800 RU immobilization density of Protein A per flow cell. SPR experiments were conducted at 25° C. using PBST (137 mM sodium chloride, 2.7 mM potassium chloride, 10 mM phosphate buffer, 0.05% Tween 20) running buffer at pH 7.4 and 6.0. Antibodies (formatted as IgG1.3 antibodies) were diluted to 50 nM in PBST pH 7.4, and were captured across active biosensor flow cells at 5 ul/min for 60 seconds. […] Two 15 second injections of 10 mM glycine pH 1.5 were used to regenerate the Protein A capture surface between assay cycles. Reference flow cell and 0 nM blank-subtracted sensorgrams were inspected using Biacore® T200 Evaluation Software v.2.0. The results are shown in […]

[11] = biological target: T5, avidin (ThermoFisher Scientific catalog #21128) (UniProt P02701 25-152); assay: SPR 25C pH 6.0 and 7.4
T5 sequence (P02701 25-152 limits assumed): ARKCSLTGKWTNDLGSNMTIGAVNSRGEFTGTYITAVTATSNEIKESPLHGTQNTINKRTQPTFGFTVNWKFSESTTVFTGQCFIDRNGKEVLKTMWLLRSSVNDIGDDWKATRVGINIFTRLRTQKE
Procedure: as §1

[12] = biological target: T4, monovalent hVISTA-ECD (amino acids …); assay: SPR 37C; remark: listed apart in the source
Procedure: For this assay, '029, '761 and '767 were reformatted as hIgG1f isotype and were expressed as both standard hIgG1f and in hIgG1f afucosylated formats to compare against the hIgG1.3f Fc. An SPR kinetics assay was conducted to measure koff and KD binding affinity measurements for VISTA Abs at acidic and physiological pH using a Biacore® T100 instrument (GE Healthcare). Protein A (ThermoFisher Scientific catalog #21181) was diluted to 20 μg/ml in 10 mM sodium acetate pH 4.5 and immobilized onto flow cells of a CM5 biosensor following the manufacturer's amine coupling protocol (GE Healthcare), targeting 2,000 RU immobilization density of Protein A per flow cell. […] Antibodies were diluted to 25 nM in PBST pH 7.4, and were captured across active biosensor flow cells at 5 ul/min for 45 seconds. […] Two 15 second injections of 10 mM glycine pH 1.5 were used to regenerate the Protein A capture surface between assay cycles. Rate constants ka (kₒₙ) and kd (koff) were derived from reference flow cell and 0 nM blank-subtracted sensorgrams, and were fit to a 1:1 binding model in Biacore® T200 Evaluation Software v.2.0. The affinity constant, KD was calculated as the ratio of rate constants koff/kₒₙ for each VISTA antibody. Ratios of koff and KD at pH 7.4/pH 6.0 were calculated to compare off-rate and affinity improvement at acidic pH relative to physiological pH.

[13] = biological target: T5, avidin (ThermoFisher Scientific catalog …); assay: SPR pH 6.0 and 7.4
[14] = biological target: T4, monovalent hVISTA-ECD (amino acids …); assay: SPR (FIG. 19C)

Binder	KD ratio (7.4/6) [4]	kd ratio (7.4/6) [4]	KD ratio (7.4/6) (cyno VISTA-ECD (His tag) [5])	kd ratio (7.4/6) (cyno VISTA-ECD (His tag) [5])	Kd [6] [nM]	kon [6] [M⁻¹ s⁻¹]	Kd (cyno VISTA-ECD (His tag) [7]) [nM]	koff (cyno VISTA-ECD (His tag) [7]) [s⁻¹]	kon (cyno VISTA-ECD (His tag) [7]) [M⁻¹ s⁻¹]	Kd [8] [nM]	koff [8] [s⁻¹]	kon [8] [M⁻¹ s⁻¹]	Kd (cyno VISTA-ECD (His tag) [9]) [nM]	koff (cyno VISTA-ECD (His tag) [9]) [s⁻¹]	kon (cyno VISTA-ECD (His tag) [9]) [M⁻¹ s⁻¹]	binding result [10]	binding result [11]	binding result [13]	other results
B1																			EC50, AML3 viability (Cell Titer Glo), endolysosome-dependent antibody drug conjugate killing assay [1]: 0.485 µg/mL; binding result [2]: binds
B2	9.1	1.1	4.7	1.1	6.8	980000	10	0.0062	620000	62	0.0075	120000	47	0.0067	140000	no binding (tested: <=10 RU, 100-10 nM)	no binding (tested: <=10 RU, 100-10 nM)		binding result [3]: binds; koff [6]: 0.0066 s⁻¹
B3	2120	26.4	696	21.2	4.1	350000	7.9	0.0017	210000	8700	0.037	4300	5500	0.036	6500	no binding (tested: <=10 RU, 100-10 nM)	no binding (tested: <=10 RU, 100-10 nM)		fold faster koff at pH 6.9 compared to pH 6.0 [12]: ≥ 10 fold; fold lower affinity at pH 6.45 compared to pH 6.0 [12]: ≥ 10 fold; fold lower affinity at pH 6.9 compared to pH 6.0 [12]: ≥ 100 fold; fold lower affinity at pH 7.4 compared to pH 6.0 [12]: ≥ 1000 fold; fold weaker KD at pH 6.9 compared to pH 6.0 [12]: ≥ 100 fold; selectivity for pH 6 over pH 7.4 in KD [12]: > 2000 fold; selectivity for pH 6 over pH 7.4 in koff [12]: > 10 fold
B4																		no binding	
B5																		no binding	fold higher affinity at pH 6.0 than at pH 7.4 [14]: 200 fold
B6																		no binding	
